In US20160046721A1 (BEIJING SHENOGEN PHARMA GROUP, published 2016):
Where a chain is given by its changes, count along the chain named. Names and notes keep the numbering of the source. Values joined by “and” are separate entries in the source; they are usually repeats but may differ in a detail not shown here. Identical values can stand only once.

T1: GV27 peptide (ER-α36 c-terminal 27 aa) (human)
T1 construct: also called 27 aa peptide (F domain); 27-amino acid peptide derived from the F domain of ER-α36
T1 peptide: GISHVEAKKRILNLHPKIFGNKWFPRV

T2: Fc-ER66 (fusion protein of Fc and ER-α66 ligand binding domain) (human, UniProt P03372 302-595, limits assumed)
T2 construct: also called Fc-ER-α66 protein; not shown: Fc
T2 sequence (looked up): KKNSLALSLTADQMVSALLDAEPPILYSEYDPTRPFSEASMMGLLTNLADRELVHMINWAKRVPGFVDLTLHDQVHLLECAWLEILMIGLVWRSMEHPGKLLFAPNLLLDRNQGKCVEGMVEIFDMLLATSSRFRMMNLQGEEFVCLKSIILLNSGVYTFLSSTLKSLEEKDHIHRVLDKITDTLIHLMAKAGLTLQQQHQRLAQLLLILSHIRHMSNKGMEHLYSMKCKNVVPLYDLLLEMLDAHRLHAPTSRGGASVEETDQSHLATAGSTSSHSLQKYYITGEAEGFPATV

T3: Fc-LBD-D27 (Fc-LBD with the C-terminal 27 amino acids deleted) (human, UniProt P03372 339-456)
T3 construct: also called Fc-LBD with 27 amino acids deleted; not shown: Fc
T3 chain: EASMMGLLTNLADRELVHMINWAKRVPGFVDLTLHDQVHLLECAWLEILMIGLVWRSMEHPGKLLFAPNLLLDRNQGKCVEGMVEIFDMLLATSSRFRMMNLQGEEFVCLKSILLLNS

T4: Fc-LBD (fusion protein of Fc and ER-α36 ligand binding domain including the C-terminal 27 amino acids) (human)
T4 construct: Expressed in E. coli BL21 (DE3); No linker is described; also called Fc-ER-α36 LBD; not shown: Fc fused to the N terminal of the LBD
T4 chain: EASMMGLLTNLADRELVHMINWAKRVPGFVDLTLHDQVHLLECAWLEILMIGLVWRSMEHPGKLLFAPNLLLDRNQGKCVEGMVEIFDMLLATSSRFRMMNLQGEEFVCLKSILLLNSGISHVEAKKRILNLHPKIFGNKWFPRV

T5: biotinylated GV27 peptide (human, biotinylated (site not stated))
T5 construct: also called antigen (biotinylated GV27 peptide)
T5 peptide: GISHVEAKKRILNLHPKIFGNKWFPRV

B1: SNGmB1 antibody (antibody, mouse IgG2b, kappa)
light: ETTVTQSPASLSMTIGEKVTIRCITSTDIDDDMNWYRKKPGQPPKLLISEGNTLRPGVPSRFSSSGYGTDFVFTIENMLSEDVADYYCLQSDNLPLTFGAGTKLELKRADAAPTVSIFPPSSEQLTSGGASVVCFLNNFYPKDINVKWKIDGSERQNGVLNSWTDQDSKDSTYSMSSTLTLTKDEYERHNSYTCEATHKTSTSPIVKSFNRNEC
heavy: QAYLQQSGAELVRPGASVKMSCKASGYTFTSHNMHWIKQTPRQGLEWIGAIHPVNGDTAYNQKFKGKATLTVDKSSSTAYLQLSSLTSEESAVYFCAREGYGSVDYWGQGTTLTVSSAKTTPPSVYPLAPGCGDTTGSSVTLGCLVKGYFPESVTVTWNSGSLSSSVHTFPALLQSGLYTMSSSVTVPSSTWPSQTVTCSVAHPASSTTVDKKLEPSGPISTINPCPPCKECHKCPAPNLEGGPSVFIFPPNIKDVLMISLTPKVTCVVVDVSEDDPDVQISWFVNNVEVHTAQTQTHREDYNSTIRVVSTLPIQHQDWMSGKEFKCKVNNKDLPSPIERTISKIKGLVRAPQVYILPPPAEQLSRKDVSLTCLVVGFNPGDISVEWTSNGHTEENYKDTAPVLDSDGSYFIYSKLNMKTSKWEKTDSFSCNVRHEGLKNYYLKKTISRSPGK
notes: Mouse monoclonal antibody from a hybridoma, mIgG2b; Several lots were tested; also called HBD-B1; hybridoma derived SNGmB1
B2: SNGhB1 chimeric antibody (antibody, human IgG1, kappa)
light: ETTVTQSPASLSMTIGEKVTIRCITSTDIDDDMNWYRKKPGQPPKLLISEGNTLRPGVPSRFSSSGYGTDFVFTIENMLSEDVADYYCLQSDNLPLTFGAGTKLELKRTVAAPSVFIFPPSDEQLKSGTASVVCLLNNFYPREAKVQWKVDNALQSGNSQESVTEQDSKDSTYSLSSTLTLSKADYEKHKVYACEVTHQGLSSPVTKSFNRGEC
heavy: not shown
notes: Chimeric antibody: mouse V regions with human kappa and IgG1 constant regions; also called chimeric SNGmB1; SNGhB1(20111118)
B3: SNGHZD (C1L + C5H) (antibody, human IgG1, kappa, V domains shown)
VH: QVQLVQSGAEVKKPGASVKVSCKASGYTFTSHNMHWVRQAPGQGLEWIGAIHPVNGDTAYNQKFKGKATLTVDKSTSTAYLELSSLRSEDTAVYYCAREGYGSVDYWGQGTLVTVSS
VL: ETTVTQSPAFMSATPGDKVNISCITSTDIDDDMNWYQQKPGEAPILIISEGNTLRPGIPPRFSSSGYGTDFTLTINNIESEDAAYYFCLQSDNLPLTFGQGTKLEIKR
notes: Humanized antibody, human IgG1/kappa, expressed in 293E6 cells; also called humanized SNGmB1 variant C1L + C5H
B4: SNGHZD (C3L + C5H) (antibody, human IgG1, kappa, V domains shown)
VH: B3 VH
VL: B3 VL with S64G
notes: Humanized antibody, human IgG1/kappa; also called humanized SNGmB1 variant C3L + C5H
B5: SNGHZD (C2L + C6H) (antibody, human IgG1, kappa, V domains shown)
VH: B3 VH with L81M
VL: B3 VL with P44A
notes: Humanized antibody, human IgG1/kappa; also called humanized SNGmB1 variant C2L + C6H
B6: SNGHZD (C2L + C5H) (antibody, human IgG1, kappa, V domains shown)
VH: B3 VH
VL: B3 VL with P44A
notes: Humanized antibody, human IgG1/kappa; also called humanized SNGmB1 variant C2L + C5H
B7: SNGHZD (C3L + C6H) (antibody, human IgG1, kappa, V domains shown)
VH: B3 VH with L81M
VL: B3 VL with S64G
notes: Humanized antibody, human IgG1/kappa; also called humanized SNGmB1 variant C3L + C6H
B8: SNGHZD (C1L + C6H) (antibody, human IgG1, kappa, V domains shown)
VH: B3 VH with L81M
VL: B3 VL
notes: Humanized antibody, human IgG1/kappa; also called humanized SNGmB1 variant C1L + C6H

Legend:
[1] = target: T1, GV27 peptide (ER-α36 c-terminal 27 aa); experiment: Biacore, antibody captured on anti-mouse Fc, GV27 injected
Description: A chip coated with the IgG but without the test antibody was used as a control.
Antibody was captured on anti-mouse/human FC IgG coated surface and peptide was injected over the surface. Empty FC1 was used as a reference channel. The chip surface was regenerated with Gly 1.5.
A Series S CM5 sensor chip (9000RU) (BIACORE) was activated in the FC 2, FC 3 and FC 4 chips by 7-min injection (10 μl/min) of freshly prepared mixture with equal volume of 50 mM NHS and 200 mM EDC. […] Active coupling sites were blocked with 7 min injection of 1M ethanolamine at 10 μl/min. Each antibody was captured over the chip surfaces respectively (FC2, FC3 and FC4, FC1 as a reference cell) and the captured signal was around 500 RU. […] The sensor surfaces were regenerated by injecting regeneration buffer (10 mM glycine buffer with pH 1.5) for 90 s. As a control, GV27 was also injected in different concentrations over the surfaces of FC without captured antibodies.

[2] = target: T2, Fc-ER66 (fusion protein of Fc and …); experiment: ELISA, plate coated with Fc-ER66 at 1 ug/ml, HRP anti-mouse IgG Fc
Description: (§1) Five different proteins were used to coat the assay plate at 1 μg/ml.

[3] = target: T3, Fc-LBD-D27 (Fc-LBD with the C-terminal …); experiment: ELISA, plate coated with Fc-LBD-D27 at 1 ug/ml, HRP anti-mouse IgG Fc
Description: as §1

[4] = target: T1, GV27 peptide (ER-α36 c-terminal 27 aa); experiment: Biacore; table head says human ER-α36, analyte taken as the GV27 peptide of Example 5
[5] = target: T4, Fc-LBD (fusion protein of Fc and ER-α36 …); experiment: ELISA, plate coated with Fc-LBD at 1 ug/ml, SNGmB1 in 5-fold dilutions from 10 ug/ml, HRP anti-mouse IgG Fc
Description: as §1

[6] = target: T1, GV27 peptide (ER-α36 c-terminal 27 aa); experiment: ELISA, plate coated with the 27-aa peptide at 1 ug/ml, SNGmB1 in 5-fold dilutions from 10 ug/ml, HRP anti-mouse IgG Fc
Description: as §1

[7] = target: T5, biotinylated GV27 peptide; experiment: competition ELISA: plate coated with hybridoma SNGmB1 (1 µg/ml), biotinylated GV27 added together with soluble SNGmB1, streptavidin-HRP
Description: (§2) The antigen (biotinylated GV27 peptide) was added along with different amount of the competing mouse antibody, the ELISA plates were then allowed to incubate for equilibrium before wash. Streptavidin-HRP (Sigma, S2438, 1:5000) and TMB substrate (Biopanda, China) were added and OD450 was measured on a plate reader. IgG were tested in parallel as control antibody.

[8] = target: T5, biotinylated GV27 peptide; experiment: competition ELISA: plate coated with humanized SNGmB1 ('hzdSNGmB1', 1 µg/ml), biotinylated GV27 added together with soluble SNGmB1, streptavidin-HRP
Description: as §2

[9] = target: T5, biotinylated GV27 peptide; experiment: competition ELISA: plate coated with SNGhB1 (1 µg/ml), biotinylated GV27 added together with the soluble antibody, streptavidin-HRP; the sheet labels the soluble antibody SNGhB1, the legend paragraph 64 and paragraph 314 to paragraph 316 name SNGmB1
Description: as §2

[10] = target: T1, GV27 peptide (ER-α36 c-terminal 27 aa); experiment: ELISA on the coated 27-aa peptide, antibody in 5-fold dilutions from 10 ug/ml
[11] = target: T1, GV27 peptide (ER-α36 c-terminal 27 aa); experiment: as above

| Binder | koff [4] | kon [4] | Kd [4] [nM] | other results |
| --- | --- | --- | --- | --- |
| B1 | 0.000129 s⁻¹ and 0.000319 s⁻¹ | 2.12e+06 M⁻¹ s⁻¹ and 1.76e+06 M⁻¹ s⁻¹ | – | Kd [1]: ~0.1 nM; binding result [2]: no binding (tested: 10 ug/ml); binding result [3]: no binding (tested: 10 ug/ml); EC50 (read off the curve) [5]: ~0.05 µg/mL; EC50 (read off the curve) [6]: ~0.6 µg/mL; IC50 (read off the curve) [7]: ~0.5 µg/mL; IC50 (read off the curve) [8]: ~0.5 µg/mL |
| B2 | 0.000283 s⁻¹ | 1.74e+06 M⁻¹ s⁻¹ | 0.163 | IC50 (read off the curve) [9]: ~0.5 µg/mL |
| B3 | 0.000122 s⁻¹ | 744000 M⁻¹ s⁻¹ | 0.164 | – |
| B4 | 0.000356 s⁻¹ | 3.54e+06 M⁻¹ s⁻¹ | 0.1 | – |
| B5 | 0.000398 s⁻¹ | 1.28e+06 M⁻¹ s⁻¹ | 0.31 | – |
| B6 | 0.000488 s⁻¹ | 3.46e+06 M⁻¹ s⁻¹ | 0.13 | EC50 (read off the curve) [10]: ~0.04 µg/mL |
| B7 | 0.00036 s⁻¹ | 1.33e+06 M⁻¹ s⁻¹ | 0.271 | – |
| B8 | 0.000302 s⁻¹ | 2.89e+06 M⁻¹ s⁻¹ | 0.105 | EC50 (read off the curve) [11]: ~0.05 µg/mL |
